Numbered stars: 1 amine (or outer) side, 2 acyl side, 3 side chain; on linkers, the order of the positions; unused ones are H or OH. Square brackets hold non-standard residues; d marks the D form. Side chains are listed from the residue outwards. Ends that are not written are not given here. * marks the point of attachment. C18 diacid = O=C(O)CCCCCCCCCCCCCCCCC(=O)*; γGlu = O=C(O)[C@H](CCC(=O)[*:2])N[*:1]; Iva = CC[C@](C)(N)C(=O)O; Abu = CC[C@H](N)C(=O)O; AEEA = NCCOCCOCC(=O)O; Aib = CC(C)(N)C(=O)O
T1: human GIP receptor (human, UniProt P48546 22-466)
T1 sequence (looked up): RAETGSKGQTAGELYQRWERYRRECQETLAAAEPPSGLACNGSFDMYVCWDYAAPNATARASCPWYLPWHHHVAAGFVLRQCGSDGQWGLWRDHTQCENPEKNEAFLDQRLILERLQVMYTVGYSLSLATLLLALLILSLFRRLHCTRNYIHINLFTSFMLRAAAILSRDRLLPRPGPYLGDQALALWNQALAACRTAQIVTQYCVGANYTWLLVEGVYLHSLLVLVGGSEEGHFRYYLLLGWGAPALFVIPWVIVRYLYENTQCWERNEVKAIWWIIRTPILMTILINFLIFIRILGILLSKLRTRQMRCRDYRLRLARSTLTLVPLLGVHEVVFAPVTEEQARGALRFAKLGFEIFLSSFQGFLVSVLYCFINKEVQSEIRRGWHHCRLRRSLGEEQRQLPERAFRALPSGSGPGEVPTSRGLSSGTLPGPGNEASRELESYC


What was measured:
human GLP-1 receptor [1] = molecular target: T2, human GLP-1 receptor (human, UniProt P43220 24-463); experiment: cell-based or functional assay
human GIP receptor [2] = molecular target: T1, human GIP receptor; experiment: cell-based or functional assay
human GLP-1 receptor [3] = molecular target: T2, human GLP-1 receptor; experiment: displacement of [125I]GLP-1 from HEK-293 membranes expressing hGLP-1R (SPA beads)
human GIP receptor [4] = molecular target: T1, human GIP receptor; experiment: cell-based or functional assay; remark: listed apart in the source

Row | Binder | EC50 hGLP-1R 0.1% BSA (cAMP, HEK-293) (human GLP-1 receptor [1]) [pM] | EC50 hGIPR 0% HSA (cAMP, HEK-293) (human GIP receptor [2]) [pM] | EC50 hGIPR 0.1% BSA (cAMP, HEK-293) (human GIP receptor [2]) [pM] | IC50 (human GLP-1 receptor [3]) [pM] | hGIPR EC50 (cAMP, human adipocytes) (human GIP receptor [4]) [pM] | hGIPR Emax (cAMP, human adipocytes) (human GIP receptor [4]) [%]
1 | H-Y[Aib]EGT[Iva]ISDLSI[Aib]K([AEEA-AEEA-γGlu-C18 diacid])DRIHQ[Aib]EFIEWLLAQGPSSGAPPPS-NH2 (Synthetic peptide, 39 residues) [SEQ ID NO: 23] | > 10000 | 0.27 | 17.7 | 259000 | 200 | 91
2 | Y[Aib]EGTFISDLSI[Aib]K([AEEA-AEEA-γGlu-C18 diacid])DRIHQ[Aib]EFIEWLLAQRPSSGAPPPS-NH2 (N-terminus assumed; SMILES CC[C@H](C)[C@H](NC(=O)[C@H](CCCNC(=N)N)NC(=O)[C@H](CC(=O)O)NC(=O)[C@H](CCCCNC(=O)COCCOCCNC(=O)COCCOCCNC(=O)CC[C@H](NC(=O)CCCCCCCCCCCCCCCCC(=O)O)C(=O)O)NC(=O)C(C)(C)NC(=O)[C@@H](NC(=O)[C@H](CO)NC(=O)[C@H](CC(C)C)NC(=O)[C@H](CC(=O)O)NC(=O)[C@H](CO)NC(=O)[C@@H](NC(=O)[C@H](Cc1ccccc1)NC(=O)[C@@H](NC(=O)CNC(=O)[C@H](CCC(=O)O)NC(=O)C(C)(C)NC(=O)[C@@H](N)Cc1ccc(O)cc1)[C@@H](C)O)[C@@H](C)CC)[C@@H](C)CC)C(=O)N[C@@H](Cc1c[nH]cn1)C(=O)N[C@@H](CCC(N)=O)C(=O)NC(C)(C)C(=O)N[C@@H](CCC(=O)O)C(=O)N[C@@H](Cc1ccccc1)C(=O)N[C@H](C(=O)N[C@@H](CCC(=O)O)C(=O)N[C@@H](Cc1c[nH]c2ccccc12)C(=O)N[C@@H](CC(C)C)C(=O)N[C@@H](CC(C)C)C(=O)N[C@@H](C)C(=O)N[C@@H](CCC(N)=O)C(=O)N[C@@H](CCCNC(=N)N)C(=O)N1CCC[C@H]1C(=O)N[C@@H](CO)C(=O)N[C@@H](CO)C(=O)NCC(=O)N[C@@H](C)C(=O)N1CCC[C@H]1C(=O)N1CCC[C@H]1C(=O)N1CCC[C@H]1C(=O)N[C@@H](CO)C(N)=O)[C@@H](C)CC, Synthetic peptide, 39 residues (Arg at 30)) [SEQ ID NO: 30] | > 10000 | 0.48 | 11 | 151000 | 500 | 138
3 | Y[Aib]EGTFISDLSI[Aib]LDRIK([AEEA-AEEA-γGlu-C18 diacid])Q[Aib]EFIEWLLAQGPSSGAPPPS-NH2 (N-terminus assumed; SMILES CC[C@H](C)[C@H](NC(=O)[C@H](CCCNC(=N)N)NC(=O)[C@H](CC(=O)O)NC(=O)[C@H](CC(C)C)NC(=O)C(C)(C)NC(=O)[C@@H](NC(=O)[C@H](CO)NC(=O)[C@H](CC(C)C)NC(=O)[C@H](CC(=O)O)NC(=O)[C@H](CO)NC(=O)[C@@H](NC(=O)[C@H](Cc1ccccc1)NC(=O)[C@@H](NC(=O)CNC(=O)[C@H](CCC(=O)O)NC(=O)C(C)(C)NC(=O)[C@@H](N)Cc1ccc(O)cc1)[C@@H](C)O)[C@@H](C)CC)[C@@H](C)CC)C(=O)N[C@@H](CCCCNC(=O)COCCOCCNC(=O)COCCOCCNC(=O)CC[C@H](NC(=O)CCCCCCCCCCCCCCCCC(=O)O)C(=O)O)C(=O)N[C@@H](CCC(N)=O)C(=O)NC(C)(C)C(=O)N[C@@H](CCC(=O)O)C(=O)N[C@@H](Cc1ccccc1)C(=O)N[C@H](C(=O)N[C@@H](CCC(=O)O)C(=O)N[C@@H](Cc1c[nH]c2ccccc12)C(=O)N[C@@H](CC(C)C)C(=O)N[C@@H](CC(C)C)C(=O)N[C@@H](C)C(=O)N[C@@H](CCC(N)=O)C(=O)NCC(=O)N1CCC[C@H]1C(=O)N[C@@H](CO)C(=O)N[C@@H](CO)C(=O)NCC(=O)N[C@@H](C)C(=O)N1CCC[C@H]1C(=O)N1CCC[C@H]1C(=O)N1CCC[C@H]1C(=O)N[C@@H](CO)C(N)=O)[C@@H](C)CC, Synthetic peptide, 39 residues) [SEQ ID NO: 37] | > 10000 | 0.15 | 20.1 | 41000 | 500 | 113
4 | Y[Aib]EGTFISDLSI[Aib]LEEQK([AEEA-AEEA-γGlu-C18 diacid])Q[Aib]EFIEWLLAQGPSSGAPPPS-NH2 (N-terminus assumed; SMILES CC[C@H](C)[C@H](NC(=O)[C@H](Cc1ccccc1)NC(=O)[C@H](CCC(=O)O)NC(=O)C(C)(C)NC(=O)[C@H](CCC(N)=O)NC(=O)[C@H](CCCCNC(=O)COCCOCCNC(=O)COCCOCCNC(=O)CC[C@H](NC(=O)CCCCCCCCCCCCCCCCC(=O)O)C(=O)O)NC(=O)[C@H](CCC(N)=O)NC(=O)[C@H](CCC(=O)O)NC(=O)[C@H](CCC(=O)O)NC(=O)[C@H](CC(C)C)NC(=O)C(C)(C)NC(=O)[C@@H](NC(=O)[C@H](CO)NC(=O)[C@H](CC(C)C)NC(=O)[C@H](CC(=O)O)NC(=O)[C@H](CO)NC(=O)[C@@H](NC(=O)[C@H](Cc1ccccc1)NC(=O)[C@@H](NC(=O)CNC(=O)[C@H](CCC(=O)O)NC(=O)C(C)(C)NC(=O)[C@@H](N)Cc1ccc(O)cc1)[C@@H](C)O)[C@@H](C)CC)[C@@H](C)CC)C(=O)N[C@@H](CCC(=O)O)C(=O)N[C@@H](Cc1c[nH]c2ccccc12)C(=O)N[C@@H](CC(C)C)C(=O)N[C@@H](CC(C)C)C(=O)N[C@@H](C)C(=O)N[C@@H](CCC(N)=O)C(=O)NCC(=O)N1CCC[C@H]1C(=O)N[C@@H](CO)C(=O)N[C@@H](CO)C(=O)NCC(=O)N[C@@H](C)C(=O)N1CCC[C@H]1C(=O)N1CCC[C@H]1C(=O)N1CCC[C@H]1C(=O)N[C@@H](CO)C(N)=O, Synthetic peptide, 39 residues) [SEQ ID NO: 36] | > 10000 | 0.12 | 28.8 | 115000 | 300 | 104
5 | Y[Aib]EGTFISDLSI[Aib]K([AEEA-AEEA-γGlu-C18 diacid])DR[Aib]HQ[Aib]EFIEWLLAQRPSSGAPPPS-NH2 (N-terminus assumed; SMILES CC[C@H](C)[C@H](NC(=O)[C@H](Cc1ccccc1)NC(=O)[C@H](CCC(=O)O)NC(=O)C(C)(C)NC(=O)[C@H](CCC(N)=O)NC(=O)[C@H](Cc1c[nH]cn1)NC(=O)C(C)(C)NC(=O)[C@H](CCCNC(=N)N)NC(=O)[C@H](CC(=O)O)NC(=O)[C@H](CCCCNC(=O)COCCOCCNC(=O)COCCOCCNC(=O)CC[C@H](NC(=O)CCCCCCCCCCCCCCCCC(=O)O)C(=O)O)NC(=O)C(C)(C)NC(=O)[C@@H](NC(=O)[C@H](CO)NC(=O)[C@H](CC(C)C)NC(=O)[C@H](CC(=O)O)NC(=O)[C@H](CO)NC(=O)[C@@H](NC(=O)[C@H](Cc1ccccc1)NC(=O)[C@@H](NC(=O)CNC(=O)[C@H](CCC(=O)O)NC(=O)C(C)(C)NC(=O)[C@@H](N)Cc1ccc(O)cc1)[C@@H](C)O)[C@@H](C)CC)[C@@H](C)CC)C(=O)N[C@@H](CCC(=O)O)C(=O)N[C@@H](Cc1c[nH]c2ccccc12)C(=O)N[C@@H](CC(C)C)C(=O)N[C@@H](CC(C)C)C(=O)N[C@@H](C)C(=O)N[C@@H](CCC(N)=O)C(=O)N[C@@H](CCCNC(=N)N)C(=O)N1CCC[C@H]1C(=O)N[C@@H](CO)C(=O)N[C@@H](CO)C(=O)NCC(=O)N[C@@H](C)C(=O)N1CCC[C@H]1C(=O)N1CCC[C@H]1C(=O)N1CCC[C@H]1C(=O)N[C@@H](CO)C(N)=O, Synthetic peptide, 39 residues) [SEQ ID NO: 22] | > 10000 | 0.16 | 6.66 | 221000 | 600 | 98
6 | H-Y[Aib]EGT[Abu]ISDLSI[Aib]K([AEEA-AEEA-γGlu-C18 diacid])DRIHQEEFIEWLLAQGPSSGAPPPS-NH2 (SMILES CC[C@H](NC(=O)[C@@H](NC(=O)CNC(=O)[C@H](CCC(=O)O)NC(=O)C(C)(C)NC(=O)[C@@H](N)Cc1ccc(O)cc1)[C@@H](C)O)C(=O)N[C@H](C(=O)N[C@@H](CO)C(=O)N[C@@H](CC(=O)O)C(=O)N[C@@H](CC(C)C)C(=O)N[C@@H](CO)C(=O)N[C@H](C(=O)NC(C)(C)C(=O)N[C@@H](CCCCNC(=O)COCCOCCNC(=O)COCCOCCNC(=O)CC[C@H](NC(=O)CCCCCCCCCCCCCCCCC(=O)O)C(=O)O)C(=O)N[C@@H](CC(=O)O)C(=O)N[C@@H](CCCNC(=N)N)C(=O)N[C@H](C(=O)N[C@@H](Cc1c[nH]cn1)C(=O)N[C@@H](CCC(N)=O)C(=O)N[C@@H](CCC(=O)O)C(=O)N[C@@H](CCC(=O)O)C(=O)N[C@@H](Cc1ccccc1)C(=O)N[C@H](C(=O)N[C@@H](CCC(=O)O)C(=O)N[C@@H](Cc1c[nH]c2ccccc12)C(=O)N[C@@H](CC(C)C)C(=O)N[C@@H](CC(C)C)C(=O)N[C@@H](C)C(=O)N[C@@H](CCC(N)=O)C(=O)NCC(=O)N1CCC[C@H]1C(=O)N[C@@H](CO)C(=O)N[C@@H](CO)C(=O)NCC(=O)N[C@@H](C)C(=O)N1CCC[C@H]1C(=O)N1CCC[C@H]1C(=O)N1CCC[C@H]1C(=O)N[C@@H](CO)C(N)=O)[C@@H](C)CC)[C@@H](C)CC)[C@@H](C)CC)[C@@H](C)CC, Synthetic peptide, 39 residues) [SEQ ID NO: 25] | > 10000 | 0.28 | 14.4 | 417000 | 200 | 112
